According to publication PMC6703420, “How Thermophilic Gram-Positive Organisms Perform Extracellular Electron Transfer: Characterization of the Cell Surface Terminal Reductase OcwA” (mBio, 2019):

B1: OcwA (Outer cell wall protein A), TherJR_2595 (Thermincola carboxydiphila JR) (protein)
chain: EKPADSGPAVAQNTEYVGDEACKTCHSDVHSAWSETSHGNFIKDVTKDPKALPGNFEGNYPKMLNFKAEDIQYVLLGKPGALKVQELVGKKGTFGVPADDYPVMWASWDAGKGEWEIEVEAIGEGTPWLSTCAGCHVTGLTVPTDKNPKAAKAFAGFGITCEQCHGPGAKHIKNPQGEKMVISYDAENCGQCHSRGDSVAKTPDGKPFGYPYNDEGQYVPGKKLADYYTVVSVEGDKEGKLFWPTKHAKNSHHLQYPEWLMTGHATALETLKGNGHAQDRCLKCHSAEAYLAKEGTTVTMNDAKLGVTCQVCHASHDPAATKEAFLRKPKTEICTQCHNAEGGIVAGKEVHHPHKEMNEGKIGLGFPDSPSVMYKAGVTCVDCHMPKTAGPKASHLMKVVMPKDGKANGMPDSCSSCHPGASQDYLQNVIDTWQNDIKGRLAKVKAKLDAKKAAANSQAYKEALTYYSIVAADGSNGVHNYDLAVKLLTAAEQKLQ
notes: native signal peptide replaced by that of S. oneidensis MR-1 stc, cleaved (N-terminus EKPAD); E. coli JM109(DE3), HisTrap purified; ~62 kDa; nine c-type hemes; monomer/dimer mixture; precursor 525 residues

Tests used:
[1] = molecular target: T1, OcwA (Outer cell wall protein A), TherJR_2595 (Thermincola carboxydiphila, UniProt D5XBK3); assay: […] NMR titration; type: binding; conditions: 100 μM FMN, 20 mM phosphate pH 7.6, 100 mM KCl, 25°C; slow exchange
T1 construct: native signal peptide replaced by that of S. oneidensis MR-1 stc, cleaved (N-terminus EKPAD); E. coli JM109(DE3), HisTrap purified; ~62 kDa; nine c-type hemes; monomer/dimer mixture; precursor 525 residues

[2] = substrate: O=NO; assay: purified protein; type: biochemical, Thermincola carboxydiphila; conditions: up to 1 mM reduced methyl viologen, 50 mM potassium phosphate pH 7.0, 55°C, anaerobic

Row | Molecule | 31P NMR titration [1] | Km [2] [µM] | kcat [2] [s⁻¹]
1 | Cc1cc2nc3c(=O)[nH]c(=O)nc-3n(C[C@H](O)[C@H](O)[C@H](O)COP(=O)(O)O)c2cc1C [FMN, flavin mononucleotide] | These spectral changes arise from binding of FMN to OcwA in a slow exchange regime |  | 
2 | B1 |  | 65 | 0.017
